Assays:
Experiment in all cases: ELISA: Fc-His proteins (1 nM) captured on anti-6-His antibody, antibody A 10 µg/mL with human IgG 100 µg/mL, HRP anti-mouse IgG, OD450 as % of mouse EphA4-Fc-His
[1] = target: T1, mouse EphA3 extracellular region-Fc-His protein (mouse; human, UniProt P29319 21-540)
T1 construct: extracellular domain; not shown: Fc region of human IgG1; histidine tag
T1 sequence (looked up): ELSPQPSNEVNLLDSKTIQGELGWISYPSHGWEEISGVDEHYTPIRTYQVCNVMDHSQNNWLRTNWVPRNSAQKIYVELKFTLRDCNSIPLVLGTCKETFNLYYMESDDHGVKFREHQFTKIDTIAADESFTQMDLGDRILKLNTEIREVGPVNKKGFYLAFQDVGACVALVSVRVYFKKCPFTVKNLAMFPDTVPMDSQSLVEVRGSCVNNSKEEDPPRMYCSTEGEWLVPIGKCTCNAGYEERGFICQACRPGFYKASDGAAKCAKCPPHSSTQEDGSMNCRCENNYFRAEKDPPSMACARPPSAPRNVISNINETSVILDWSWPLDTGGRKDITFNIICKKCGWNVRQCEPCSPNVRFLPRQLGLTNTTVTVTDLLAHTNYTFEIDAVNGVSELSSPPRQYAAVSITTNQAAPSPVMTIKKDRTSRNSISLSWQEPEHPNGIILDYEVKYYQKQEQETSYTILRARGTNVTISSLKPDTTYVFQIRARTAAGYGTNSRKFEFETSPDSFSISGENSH
Method: (§1) Rabbit anti-6-His antibodies (Bethyl Laboratories) were coated onto the wells of a 96-well plate (Nunc). After incubating at 4° C. overnight, the wells were blocked at room temperature for 1 hour by 1% Block Ace (DS Pharma Biomedical). After washing 3 times with 0.05% Tween 20/PBS (Thermo […]), each Eph receptor of mouse extracellular region-Fc-His protein (final concentration 1 nM) was seeded into each well, and incubated at room temperature for 1 hour. After washing 3 times, human IgG solution (100 μg/mL, Sigma) and antibody A (10 μg/mL) were supplemented to the wells, and incubated at room temperature for 1 hour. Horseradish peroxidase-labeled donkey anti-mouse IgG antibody (Jackson ImmunoResearch Laboratories) was added, and incubated at room temperature for 1 hour. After washing 3 times, TMBZ (3,3′,5,5′-tetramethylbenzidine, Sigma) solution was added to the wells, and upon confirmation of modest coloring, an equal amount of quenching solution (1 N H₂SO₄, Wako Pure Chemicals) was added to the wells, and absorbance at 450 nm was read by a microplate reader (PerkinElmer).

[2] = target: T2, mouse EphB2 extracellular region-Fc-His protein (mouse; human, UniProt P54763 19-543)
T2 construct: extracellular domain; not shown: Fc region of human IgG1; histidine tag
T2 sequence (looked up): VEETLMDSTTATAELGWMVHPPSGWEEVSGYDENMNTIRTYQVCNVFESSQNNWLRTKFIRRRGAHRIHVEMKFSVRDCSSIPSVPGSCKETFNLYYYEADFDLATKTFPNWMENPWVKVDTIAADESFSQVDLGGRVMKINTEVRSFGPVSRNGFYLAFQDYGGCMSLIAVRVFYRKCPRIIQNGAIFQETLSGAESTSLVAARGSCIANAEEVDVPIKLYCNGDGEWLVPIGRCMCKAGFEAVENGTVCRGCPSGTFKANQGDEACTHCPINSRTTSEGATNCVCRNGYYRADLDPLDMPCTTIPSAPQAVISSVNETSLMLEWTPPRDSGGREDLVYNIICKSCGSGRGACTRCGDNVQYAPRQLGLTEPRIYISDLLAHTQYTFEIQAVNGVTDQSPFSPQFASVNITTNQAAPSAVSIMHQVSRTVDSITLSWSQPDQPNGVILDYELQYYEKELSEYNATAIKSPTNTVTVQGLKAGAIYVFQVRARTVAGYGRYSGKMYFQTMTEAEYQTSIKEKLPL
Method: as §1

[3] = target: T3, mouse EphB1 extracellular region-Fc-His protein (mouse; human, UniProt Q8CBF3 18-540)
T3 construct: extracellular domain; not shown: Fc region of human IgG1; histidine tag
T3 sequence (looked up): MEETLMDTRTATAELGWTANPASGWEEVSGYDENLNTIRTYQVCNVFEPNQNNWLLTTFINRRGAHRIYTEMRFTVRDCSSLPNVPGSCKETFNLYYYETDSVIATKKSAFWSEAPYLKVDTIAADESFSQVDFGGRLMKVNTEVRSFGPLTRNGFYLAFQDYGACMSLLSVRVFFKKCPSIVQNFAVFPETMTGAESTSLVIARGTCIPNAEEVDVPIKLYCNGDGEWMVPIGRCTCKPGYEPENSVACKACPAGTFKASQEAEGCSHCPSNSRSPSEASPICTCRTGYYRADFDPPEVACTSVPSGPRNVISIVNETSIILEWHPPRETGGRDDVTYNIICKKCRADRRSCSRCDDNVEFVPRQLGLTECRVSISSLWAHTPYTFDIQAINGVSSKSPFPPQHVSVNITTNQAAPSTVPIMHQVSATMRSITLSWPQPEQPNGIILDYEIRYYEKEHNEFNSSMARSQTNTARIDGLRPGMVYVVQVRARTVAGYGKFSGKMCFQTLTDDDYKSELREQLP
Method: as §1

Measured: binding result

B1: mouse anti-EphA4 monoclonal antibody (antibody A) (antibody, mouse IgG1, kappa, V domains shown)
VH: QVQLKQSGPSLVQPSQSLSITCTVSGFSLTRYGVHWVRQSPGKGLEWLGVIWRGGSTDYNAAFMSRLSITKDNSKSQVFFKMNSLQADDTAIYYCAKESLFGVYYDYGYYSMDYWGQGTSVTVSS
VL: DIQMTQSPSSLSASLGERVSLTCRASQEISGYLSWLQQKPDGTIKRLIYAASTLDSGVPKRFSGSRSGSDYSLTISSLESEDFADYYCLQYASYPLTFGAGTKLELKR
notes: purified from hybridoma supernatant
no binding (tested: 10 µg/mL): [1] | [2] | [3]

— US20240010735A1 (EISAI R AND D MANAGEMENT, published 2024)
